Measurements reported in patent publication US11278600B2, “Human alpha-galactosidase variants” (Codexis, Inc., priority 2014, dated 2022).
Residue numbers refer to the chain shown, from its start.

B1: 688 (protein)
chain: LDNGLARTPTMGWLHWERFMCNLDCQEEPDSCISEKLFMEMAERMVTEGWKDAGYEYLCIDDCWMAPQRDSEGRLQADPQRFPHGIRQLANHVHSKGLKLGIYADVGNKTCAGFPGSFGYYDIDAQTFADWGVDLLKFDGCYCDSLENLADGYKHMSLALNRTGRPIVYSCEWPLYMWPFQKPNYTEIRQYCNHWRNFADIDDSWASIKSILDWTSRNQERIVDVAGQGGWNDPDMLVIGNFGLSWDQQVTQMALWAIMAAPLFMSNDLRAISPQAKALLQDKDVIAINQDPLGKQGYQLRKGDNFEVWERPLSGDAWAVAIINRQEIGGPRSYTIPVASLGKGVACNPACFITQLLPVKRQLGFYNWTSRLKSHINPTGTVLLQLENTMQTSLKDLL
modifications: Synthetic Polypeptide sequence of Variant No. 688 of mature Human GLA
B2: 689 (protein)
chain: B1 chain with Q228P, N305L
modifications: Synthetic Polypeptide sequence of Variant No. 689 of mature Human GLA
B3: 690 (protein)
chain: B1 chain with T10P, M156V, Q228P
modifications: Synthetic Polypeptide sequence of Variant No. 690 of mature Human GLA
B4: 691 (protein)
chain: B1 chain with T10P, Q228P
modifications: Synthetic Polypeptide sequence of Variant No. 691 of mature Human GLA
B5: 692 (protein)
chain: B1 chain with Q228P, W256L
modifications: Synthetic Polypeptide sequence of Variant No. 692 of mature Human GLA
B6: 693 (protein)
chain: B1 chain with Q228P, W368A
modifications: Synthetic Polypeptide sequence of Variant No. 693 of mature Human GLA
B7: 642 (protein)
chain: B1 chain with T10P, E43D, Q228P, A261G, N305L, W368A
modifications: Synthetic Polypeptide sequence of Variant No. 642 of mature Human GLA
B8: 643 (protein)
chain: B1 chain with T10P, Q228P, R325S
modifications: Synthetic Polypeptide sequence of Variant No. 643 of mature Human GLA
B9: 644 (protein)
chain: B1 chain with Q228P, L237P
modifications: Synthetic Polypeptide sequence of Variant No. 644 of mature Human GLA
B10: 645 (protein)
chain: B1 chain with P174S, Q228P
modifications: Synthetic Polypeptide sequence of Variant No. 645 of mature Human GLA
B11: 646 (protein)
chain: B1 chain with G113C, Q228P
modifications: Synthetic Polypeptide sequence of Variant No. 646 of mature Human GLA
B12: 647 (protein)
chain: LDNGLARTPTMGWLHWERFMCNLDCQEEPDSCISEKLFMEMAERMVSEGWKDAGYEYLCIDDCWMAPQRDSEGRLQADPQRFPHGIRQLANYVHSIGLKLGIYADVGNKTCAGFPGSFGYYDIDAQTFADWGVDLLKFDGCYCDSLENLADGYKHMSLALNRTGRSIVYSCEWPLYMWPFQKPNYTEIRQYCNHWRNFADIDDSWASIKSILDWTSRNQERIVDVAGPGGWNDPDMLVIGNFGLSWNQQVTQMALWAIMAAPLFMSNDLRHISPQAKALLQDKDVIAINQDPLGKQGYQLRKGDNFEVWERPLSGLAWAVAIINRQEIGGPRSYTIAVASLGKGVACNPGCFITQLLPVKRQLGFYNWSSRLKSHINPTGTVLLQLENTMQMSLKDLL
modifications: Synthetic Polypeptide sequence of Variant No. 346 of mature Human GLA
B13: 648 (protein)
chain: B1 chain with T10P, M39E, Q228P, A261G, W368A
modifications: Synthetic Polypeptide sequence of Variant No. 648
B14: 649 (protein)
chain: B1 chain with T10P, M39E, Q228P, W246P
modifications: Synthetic Polypeptide sequence of Variant No. 649 of mature Human GLA

Assay: HTP-analysis of supernatants pretreated with acid (MUGal hydrolysis)
Format: biochemical
Conditions: activity of the variant/activity of Rd7BB (SEQ ID NO: 44); challenge at pH 3.5
Outline: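 Supernatants from INVSc1 yeast secreting GLA variants were challenged at 37° C. for 1-3 h in McIlvaine buffer at pH 3.3-4.3. Residual activity was then measured on 4 mM MUGal substrate stock at pH 4.8 with citrate buffer pH 4.3, over 30-180 min at 37° C. Reactions were quenched with sodium carbonate and read by fluorescence (Ex 355/Em 448 nm).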

Question: Which “Relative Activity of GLA Variants After Challenge at pH 3.5” value (shortened to “Relative Activity … at pH 3.5”) does the source give for B1 here?
Answer: + (>0.5 to 1.5 relative activity over Rd7BB (SEQ ID NO: 44))

Question: For B2, which “Relative Activity … at pH 3.5” value is on record?
Answer: + (>0.5 to 1.5 relative activity over Rd7BB (SEQ ID NO: 44))

Question: With B3 as the molecule, how does the “Relative Activity … at pH 3.5” value read?
Answer: − (<0.5 relative activity to Rd7BB (SEQ ID NO: 44))

Question: For B4, which “Relative Activity … at pH 3.5” value is on record?
Answer: + (>0.5 to 1.5 relative activity over Rd7BB (SEQ ID NO: 44))

Question: With B5 as the molecule, how does the “Relative Activity … at pH 3.5” value read?
Answer: − (<0.5 relative activity to Rd7BB (SEQ ID NO: 44))

Question: With B6 as the molecule, how does the “Relative Activity … at pH 3.5” value read?
Answer: + (>0.5 to 1.5 relative activity over Rd7BB (SEQ ID NO: 44))

Question: For B7, which “Relative Activity … at pH 3.5” value is on record?
Answer: + (>0.5 to 1.5 relative activity over Rd7BB (SEQ ID NO: 44))

Question: Which “Relative Activity … at pH 3.5” value does the source give for B8 here?
Answer: − (<0.5 relative activity to Rd7BB (SEQ ID NO: 44))

Question: For B9, which “Relative Activity … at pH 3.5” value is on record?
Answer: − (<0.5 relative activity to Rd7BB (SEQ ID NO: 44))

Question: Which “Relative Activity … at pH 3.5” value does the source give for B10 here?
Answer: + (>0.5 to 1.5 relative activity over Rd7BB (SEQ ID NO: 44))

Question: For B11, which “Relative Activity … at pH 3.5” value is on record?
Answer: − (<0.5 relative activity to Rd7BB (SEQ ID NO: 44))

Question: For B12, which “Relative Activity … at pH 3.5” value is on record?
Answer: − (<0.5 relative activity to Rd7BB (SEQ ID NO: 44))

Question: With B13 as the molecule, how does the “Relative Activity … at pH 3.5” value read?
Answer: + (>0.5 to 1.5 relative activity over Rd7BB (SEQ ID NO: 44))

Question: With B14 as the molecule, how does the “Relative Activity … at pH 3.5” value read?
Answer: + (>0.5 to 1.5 relative activity over Rd7BB (SEQ ID NO: 44))

Assay: HTP-analysis of yeast culture supernatants, no challenge (MUGal hydrolysis)
Format: biochemical
Conditions: activity of the variant/activity of Rd7BB (SEQ ID NO: 44)
Outline: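 GLA variants expressed in yeast INVSc1, secreted into SD-Ura broth over 66-84 h at 30° C; clarified supernatants tested without challenge. Supernatant mixed with McIlvaine buffer pH 4.8 and 2 mM MUGal (citrate/KCl, pH 4.6), 37° C for 30-180 min, carbonate-quenched, fluorescence Ex 355/Em 448 nm.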

Question: Which “Relative Activity of GLA Variants After No Challenge (NC)” value does the source give for B1 here?
Answer: + (>0.5 to 1.5 relative activity over Rd7BB (SEQ ID NO: 44))

Question: For B2, which “Relative Activity of GLA Variants After No Challenge (NC)” value is on record?
Answer: + (>0.5 to 1.5 relative activity over Rd7BB (SEQ ID NO: 44))

Question: With B3 as the molecule, how does the “Relative Activity of GLA Variants After No Challenge (NC)” value read?
Answer: + (>0.5 to 1.5 relative activity over Rd7BB (SEQ ID NO: 44))

Question: With B4 as the molecule, how does the “Relative Activity of GLA Variants After No Challenge (NC)” value read?
Answer: + (>0.5 to 1.5 relative activity over Rd7BB (SEQ ID NO: 44))

Question: With B5 as the molecule, how does the “Relative Activity of GLA Variants After No Challenge (NC)” value read?
Answer: − (<0.5 relative activity to Rd7BB (SEQ ID NO: 44))

Question: Which “Relative Activity of GLA Variants After No Challenge (NC)” value does the source give for B6 here?
Answer: + (>0.5 to 1.5 relative activity over Rd7BB (SEQ ID NO: 44))

Question: For B7, which “Relative Activity of GLA Variants After No Challenge (NC)” value is on record?
Answer: + (>0.5 to 1.5 relative activity over Rd7BB (SEQ ID NO: 44))

Question: With B8 as the molecule, how does the “Relative Activity of GLA Variants After No Challenge (NC)” value read?
Answer: + (>0.5 to 1.5 relative activity over Rd7BB (SEQ ID NO: 44))

Question: For B9, which “Relative Activity of GLA Variants After No Challenge (NC)” value is on record?
Answer: − (<0.5 relative activity to Rd7BB (SEQ ID NO: 44))

Question: For B10, which “Relative Activity of GLA Variants After No Challenge (NC)” value is on record?
Answer: + (>0.5 to 1.5 relative activity over Rd7BB (SEQ ID NO: 44))

Question: Which “Relative Activity of GLA Variants After No Challenge (NC)” value does the source give for B11 here?
Answer: − (<0.5 relative activity to Rd7BB (SEQ ID NO: 44))

Question: For B12, which “Relative Activity of GLA Variants After No Challenge (NC)” value is on record?
Answer: − (<0.5 relative activity to Rd7BB (SEQ ID NO: 44))

Question: With B13 as the molecule, how does the “Relative Activity of GLA Variants After No Challenge (NC)” value read?
Answer: + (>0.5 to 1.5 relative activity over Rd7BB (SEQ ID NO: 44))

Question: Which “Relative Activity of GLA Variants After No Challenge (NC)” value does the source give for B14 here?
Answer: + (>0.5 to 1.5 relative activity over Rd7BB (SEQ ID NO: 44))

Assay: HTP-analysis of supernatants pretreated with base (MUGal hydrolysis)
Format: biochemical
Conditions: activity of the variant/activity of Rd7BB (SEQ ID NO: 44); challenge at pH 7.5
Outline: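 Supernatants from INVSc1 yeast expressing GLA variants (SD-Ura, 66-84 h, 30° C) were mixed with McIlvaine buffer pH 7.0-8.2 or 200 mM sodium bicarbonate pH 9.1-9.7 and held 1-18 h at 37° C. Residual activity was then measured on MUGal at pH 4.8/4.3, 37° C, 30-180 min, by fluorescence (Ex 355/Em 448 nm).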

Question: Which “Relative Activity of GLA Variants After Challenge at pH 7.5” value (from here on “Relative Activity … at pH 7.5”) does the source give for B1 here?
Answer: − (<0.5 relative activity to Rd7BB (SEQ ID NO: 44))

Question: With B2 as the molecule, how does the “Relative Activity … at pH 7.5” value read?
Answer: + (>0.5 to 1.5 relative activity over Rd7BB (SEQ ID NO: 44))

Question: For B3, which “Relative Activity … at pH 7.5” value is on record?
Answer: − (<0.5 relative activity to Rd7BB (SEQ ID NO: 44))

Question: For B4, which “Relative Activity … at pH 7.5” value is on record?
Answer: + (>0.5 to 1.5 relative activity over Rd7BB (SEQ ID NO: 44))

Question: With B5 as the molecule, how does the “Relative Activity … at pH 7.5” value read?
Answer: − (<0.5 relative activity to Rd7BB (SEQ ID NO: 44))

Question: With B6 as the molecule, how does the “Relative Activity … at pH 7.5” value read?
Answer: + (>0.5 to 1.5 relative activity over Rd7BB (SEQ ID NO: 44))

Question: For B7, which “Relative Activity … at pH 7.5” value is on record?
Answer: + (>0.5 to 1.5 relative activity over Rd7BB (SEQ ID NO: 44))

Question: With B8 as the molecule, how does the “Relative Activity … at pH 7.5” value read?
Answer: + (>0.5 to 1.5 relative activity over Rd7BB (SEQ ID NO: 44))

Question: For B9, which “Relative Activity … at pH 7.5” value is on record?
Answer: − (<0.5 relative activity to Rd7BB (SEQ ID NO: 44))

Question: For B10, which “Relative Activity … at pH 7.5” value is on record?
Answer: − (<0.5 relative activity to Rd7BB (SEQ ID NO: 44))

Question: With B11 as the molecule, how does the “Relative Activity … at pH 7.5” value read?
Answer: − (<0.5 relative activity to Rd7BB (SEQ ID NO: 44))

Question: With B12 as the molecule, how does the “Relative Activity … at pH 7.5” value read?
Answer: − (<0.5 relative activity to Rd7BB (SEQ ID NO: 44))

Question: Which “Relative Activity … at pH 7.5” value does the source give for B13 here?
Answer: + (>0.5 to 1.5 relative activity over Rd7BB (SEQ ID NO: 44))

Question: For B14, which “Relative Activity … at pH 7.5” value is on record?
Answer: + (>0.5 to 1.5 relative activity over Rd7BB (SEQ ID NO: 44))
